Assay results as given in US20050142582, “Aptamers and methods for their in vitro selection and uses thereof” (The Regents of the University of California, published 2005).

Legend:
[1] = molecular target: XF0749 (virulence regulator) (Xylella fastidiosa, UniProt Q9PFC9 Q9PFC9:1-134); assay: SPR; settings: tags: His6, E. coli; label: biotin
[2] = molecular target: XF1293 (hypothetical conserved protein) (Xylella fastidiosa, UniProt Q9PDT6 Q9PDT6:1-231); assay: SPR; settings: tags: His6, E. coli; label: biotin
BSA = BSA (UniProt P02769 P02769:25-607); assay: ELONA; PBS-T, 4 C overnight; settings: label: biotin
BSA, sequence (P02769 25-607, one chain of several): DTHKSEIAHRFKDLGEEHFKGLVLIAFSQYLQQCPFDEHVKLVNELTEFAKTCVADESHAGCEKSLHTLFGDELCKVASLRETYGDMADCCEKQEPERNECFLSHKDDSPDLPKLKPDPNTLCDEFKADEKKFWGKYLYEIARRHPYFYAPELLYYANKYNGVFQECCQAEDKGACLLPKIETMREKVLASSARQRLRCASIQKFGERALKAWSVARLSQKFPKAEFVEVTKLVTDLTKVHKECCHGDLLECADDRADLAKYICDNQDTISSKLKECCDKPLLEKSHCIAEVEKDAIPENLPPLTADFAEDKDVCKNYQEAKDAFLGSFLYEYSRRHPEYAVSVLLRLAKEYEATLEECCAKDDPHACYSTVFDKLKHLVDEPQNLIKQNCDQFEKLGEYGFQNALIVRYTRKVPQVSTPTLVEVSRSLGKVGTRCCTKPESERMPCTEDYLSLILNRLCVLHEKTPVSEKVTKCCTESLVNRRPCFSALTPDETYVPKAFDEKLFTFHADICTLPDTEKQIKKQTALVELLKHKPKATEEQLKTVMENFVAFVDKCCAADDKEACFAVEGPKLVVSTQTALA

[3] = molecular target: T1, TTF1 (thyroid transcription factor 1) (Ciona intestinalis, UniProt O96738 O96738:1-477); assay: SPR; kinetic global fit 1:1; steady-state Kd 5.14 nM; HBS-P pH 7.5, 150 mM NaCl; settings: tags: N-terminal His6 plus factor Xa site (pNHis vector), E. coli; label: biotin
T1 sequence: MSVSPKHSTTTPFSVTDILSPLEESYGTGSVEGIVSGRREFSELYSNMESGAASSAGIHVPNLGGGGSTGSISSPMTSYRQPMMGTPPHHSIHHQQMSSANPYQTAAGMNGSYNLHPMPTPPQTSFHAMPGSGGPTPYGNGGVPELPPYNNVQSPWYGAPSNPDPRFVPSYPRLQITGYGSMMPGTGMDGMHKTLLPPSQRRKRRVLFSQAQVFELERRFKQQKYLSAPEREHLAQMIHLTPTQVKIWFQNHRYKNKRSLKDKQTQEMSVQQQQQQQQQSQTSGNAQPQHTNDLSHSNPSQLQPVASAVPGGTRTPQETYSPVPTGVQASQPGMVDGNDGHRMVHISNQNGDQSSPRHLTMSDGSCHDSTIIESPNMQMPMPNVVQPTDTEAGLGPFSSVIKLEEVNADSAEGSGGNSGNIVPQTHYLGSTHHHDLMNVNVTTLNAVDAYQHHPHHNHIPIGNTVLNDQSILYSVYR
Protocol: (§1) The affinity, as described by the KD, was determined by a global fit using the kinetic simultaneous kₐ/kd model, assuming Langmuir (1:1) binding.
(§2) BIAcore surface plasmon resonance. The affinity of the aptamers for their protein targets was measured using surface plasmon resonance (SPR) with a BIAcore X instrument (BIAcore, Piscataway, N.J.). Biotinylated aptamer (QIAGEN Operon, Alameda, Calif.) was diluted to 0.5 ng/μL in HBS-P (10 mM HEPES, pH 7.5, 150 mM NaCl, 0.05% Tween 20), heated to 95° C., and rapidly cooled at 4° C. before use. Approximately 100 RU of biotinylated aptamer (ligand) was immobilized to one flow cell of a streptavidin coated sensor chip. Purified TTF1 protein was diluted into HBS-P to give a series of concentrations of TTF1 protein (3, 12, 31, 62, 125, 250 nM or 2.5, 5, 10, 20, 40, 100 nM) that were injected over the surface for 2 min at a flow rate of 20 μL/min (to minimize mass transfer limitations). Bulk shift and non-specific interactions with the streptavidin were subtracted using the response from a reference flow cell. […] The affinity, as described by the equilibrium dissociation constant (KD), was determined globally by fitting to the kinetic simultaneous kₐ/kd model, assuming Langmuir (1:1) binding. The steady-state affinity was determined from curve-fitting to a plot of the Req values, derived from sensorgrams fitted locally, against the concentrations.

[4] = molecular target: T1, TTF1 (thyroid transcription factor 1); assay: SPR; kinetic global fit 1:1; steady-state Kd 65.6 nM; HBS-P pH 7.5, 150 mM NaCl; settings: tags: N-terminal His6 plus factor Xa site (pNHis vector), E. coli; label: biotin
Protocol: as §1, §2

B1: 6H7 (ssDNA)
DNA: GGTATTGAGGGTCGCATCGCTATGGGTGGTCTGGTTGGGATTGGCCCCGGGAGCTGGCGATGGCTCTAACTCTCCTCT
[1]
  Kd: 42 nM
[2]
  Kd: 0.4 nM

B2: 6H5 (ssDNA)
DNA: GGTATTGAGGGTCGCATCGGCTTCAGGTTGGTCTGGTTGGGTTTGGCTCCTGTGTACGGATGGCTCTAACTCTCCTCT
[2]
  Kd: 30 nM

B3: 6H1 (ssDNA)
DNA: GGTATTGAGGGTCGCATCGGCAAAAAGGATTGCCCAGGTCTGCTGTCTAGCCGGATTCGATGGCTCTAACTCTCCTCT
[2]
  Kd: 0.08 nM

B4: TTF1 Aptamer A (ssDNA)
DNA: GGTATTGAGGGTCGCATCTCAAAAGGGGTGATTGCTTGCACAATGACAGGGTAGGACAGATGGCTCTAACTCTCCTCT
BSA
  binding result: no binding
[3]
  Kd: 3.36 nM

B5: TTF1 Aptamer C (ssDNA)
DNA: GGTATTGAGGGTCGCATCTGGCTAGTGGGTAAGGGGCGGGAGGGTGACAGGGCGATCCGATGGCTCTAACTCTCCTCT
[4]
  Kd: 32.5 nM
